# Changes are numbered by the printed parent chain. Names and notes keep the numbering of the source. Like-named read-outs stand apart in the source and are kept apart here.
# B1: GST-tagged cytoplasmic domain of DCC (GST-DCC^cyto) (domain or fragment, human, UniProt P43146 1123-1447, looked up)
# chain: RRSSAQQRKKRATHSAGKRKGSQKDLRPPDLWIHHEEMEMKNIEKPSGTDPAGRDSPIQSCQDLTPVSHSQSETQLGSKSTSHSGQDTEEAGSSMSTLERSLAARRAPRAKLMIPMDAQSNNPAVVSAIPVPTLESAQYPGILPSPTCGYPHPQFTLRPVPFPTLSVDRGFGAGRSQSVSEGPTTQQPPMLPPSQPEHSSSEEAPSRTIPTACVRPTHPLRSFANPLLPPPMSAIEPKVPYTPLLSQPGPTLPKTHVKTASLGLAGKARSPLLPVSVPTAPEVSEESHKPTEDSANVYEQDDLSEQMASLEGLMKQLNAITGSAF
# B2: GST-DCC^ΔWIRS-cyto (domain or fragment, human, UniProt P43146 1123-1447, looked up)
# chain: B1 chain with S222A, F223A
# B3: GST-DCC^R1343H-cyto (domain or fragment, human, UniProt P43146 1123-1447, looked up)
# chain: B1 chain with R221H
# Experiments:
# [1] = target: T1, (MBP)2-WRC, human WAVE regulatory complex (human, UniProt Q7L576 1-1253; Q9Y2A7 1-1128; Q92558 1-178; Q9NYB9 1-158; Q8WUW1 1-75); test: pull-down
# [2] = target: T1, (MBP)2-WRC, human WAVE regulatory …; test: pull-down; remark: listed apart in the source
Binder,binding result [1],binding result [2]
B1,binds,
B2,,binds
B3,,binds
